Test results published in the supplement of paper PMC10567573.

B1: KLHL20 (parent)
chain: YQDMIYAVGGRDDTTELSSAERYN

Variants of: B1
Experiment: protein stability index of a GFP-peptide fusion (GPS, HEK-293T) (PSI 1-6); higher = more stable
Conditions: c terminus: a fixed tail appended
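Note: lentivirally expressed fusions sorted by FACS into six bins by GFP to DsRed ratio, PSI derived from sequencing read proportions per bin multiplied by bin number.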

Variant | protein stability index
YQDMIYAVGGRDDTTELSSAEKYN | 2.08
YQDMIYAVGGIDDTTELSSAERYN | 2.44
YQDMIYAVGGRDDTTELSSIERYN | 2.05
YQDMIYAVGGRDDTTELSSACRYN | 2.23
YQDMQYAVGGRDDTTELSSAERYN | 4.11
YQYMIYAVGGRDDTTELSSAERYN | 1.77
YQDMIYAVFGRDDTTELSSAERYN | 2.15
YQDMIYAVGGRDDPTELSSAERYN | 2.89
YQDMIYPVGGRDDTTELSSAERYN | 3.07
YQDMIYAVGGRDDNTELSSAERYN | 2.36
YQDMIYAVGGRDDTTELSSAERYY | 2.31
YQDMIYAVGGRDRTTELSSAERYN | 1.75
YQDMIYAVGGRDDTTELSSAEYYN | 2.63
YQDMIYFVGGRDDTTELSSAERYN | 1.69
YQWMIYAVGGRDDTTELSSAERYN | 2.03
YQDMIYAVGGRDDTTPLSSAERYN | 2.05
YQDMIYDVGGRDDTTELSSAERYN | 3.34
YQDMKYAVGGRDDTTELSSAERYN | 3.39
YQDMIYADGGRDDTTELSSAERYN | 3.45
YQDMIYALGGRDDTTELSSAERYN | 1.86
YQDMIYAVGGRDDTTELSSAESYN | 2.48
YQDMIYAVGGRDDTTELSMAERYN | 2.01
YQDMIYAVGGRDDTTELSQAERYN | 2.25
TQDMIYAVGGRDDTTELSSAERYN | 4.58

Variant | protein stability index
YQDMIYAVGGRDWTTELSSAERYN | 1.77
YQDMIYAVGGRDDTTELSSAENYN | 1.92
YQDMIYAVGGRDDTWELSSAERYN | 1.8
YQDMIYAVGGRDATTELSSAERYN | 1.66
YQDMIYAVPGRDDTTELSSAERYN | 2.32
YQDMIYAVGGRDDTTELGSAERYN | 2.5
YQDMIYAVGGRDDTTELSGAERYN | 2.32
YQDMIYAVGGRDDTTELSSAEIYN | 2.16
YQDMIYAVGGRDDTTEKSSAERYN | 2.41
YQDMIYQVGGRDDTTELSSAERYN | 2.29
YTDMIYAVGGRDDTTELSSAERYN | 2.22
YQDMIYAVGGRDDTTELSSTERYN | 2.21
YQDMIYAVGGRDDTTELRSAERYN | 1.99
YQDMIYACGGRDDTTELSSAERYN | 2.37
YQDMITAVGGRDDTTELSSAERYN | 3.94
YQDMIYAVGGRDFTTELSSAERYN | 2.08
YQDMHYAVGGRDDTTELSSAERYN | 2.65
YQDMIYAVGGREDTTELSSAERYN | 2.74
YQDMIYAVGGRDDTTELSSEERYN | 3.06
YQDMIYAVGGRDDTTELSSLERYN | 1.82
YQDMIYAVGGRDDTTELSSAERYV | 1.75
YQDMIYAVGGRNDTTELSSAERYN | 2.43
YQDMIYAVGGRDETTELSSAERYN | 2.36
YQDMIYAVGGRDDTTEYSSAERYN | 2.03

Variant | protein stability index
YQDMIYAVGGRDDTTELSSAERWN | 3
YQDMIYAVGSRDDTTELSSAERYN | 2.09
YQDMIYAVGCRDDTTELSSAERYN | 2.23
YQDMIYAVGGRDDMTELSSAERYN | 2.01
YQDMMYAVGGRDDTTELSSAERYN | 2.77
YQDMIYAVGGRDDTTELSSAERRN | 2.77
YQDMIYAQGGRDDTTELSSAERYN | 2.6
YQDMIYAVGGRDDTTELSSGERYN | 2.29
YQDMIGAVGGRDDTTELSSAERYN | 3.77
YQDMIRAVGGRDDTTELSSAERYN | 3.37
YQDMIYAVGGRDDTTELSSAERYR | 2.7
YQDMIYAVGGRDDTTELKSAERYN | 2.25
YQDMIYAVGGRDDTTILSSAERYN | 2.07
YQDVIYAVGGRDDTTELSSAERYN | 3.02
YQDMIYAVGGTDDTTELSSAERYN | 2.23
YQDMIYAVGGRDDFTELSSAERYN | 2.18
YQDMCYAVGGRDDTTELSSAERYN | 2.52
YQDMIYASGGRDDTTELSSAERYN | 2.65
YQDMIYAVGGRSDTTELSSAERYN | 2.32
YQDMIYAVGGRDDTTEISSAERYN | 2.33
YQDMIYKVGGRDDTTELSSAERYN | 2.12
YQDMIYAVGGRDDYTELSSAERYN | 2.1
YQDMIYAVGGRDDTTELSSAEEYN | 2.53
YQDMIYAVGGRDDTTELSSAERAN | 1.82

Variant | protein stability index
YQDMIYAVGGRDDTTELSSAELYN | 2.15
YQDMIYAVGGRDDTTELSSCERYN | 2.15
YQDMIYCVGGRDDTTELSSAERYN | 2.17
YQDMIYAWGGRDDTTELSSAERYN | 1.94
YQHMIYAVGGRDDTTELSSAERYN | 2.15
YQDMIYAVGGRDLTTELSSAERYN | 2.06
YQDMIYAEGGRDDTTELSSAERYN | 3.38
YQDMIYAVGGRDDTTELSSAERMN | 2.29
YQDMIYAVGGRTDTTELSSAERYN | 1.58
YQDMIYAVGGRDDTTELSSRERYN | 2.76
YQDMIYAVGGRDDTTQLSSAERYN | 2.36
SQDMIYAVGGRDDTTELSSAERYN | 4.89
YQDEIYAVGGRDDTTELSSAERYN | 3.68
YQDMIQAVGGRDDTTELSSAERYN | 3.87
YQDMIYAVGGRDHTTELSSAERYN | 1.98
PQDMIYAVGGRDDTTELSSAERYN | 4.57
YQDMIYAVIGRDDTTELSSAERYN | 1.51
YQDMIYAVGGRDDTTELSSAKRYN | 2.37
YQDMIYLVGGRDDTTELSSAERYN | 2.01
YQDMIYAVGGRDDQTELSSAERYN | 2.35
YQDMIYAVRGRDDTTELSSAERYN | 2.36
YQDWIYAVGGRDDTTELSSAERYN | 2.85
